The target of one assay is T1, Hla.
T1 chain: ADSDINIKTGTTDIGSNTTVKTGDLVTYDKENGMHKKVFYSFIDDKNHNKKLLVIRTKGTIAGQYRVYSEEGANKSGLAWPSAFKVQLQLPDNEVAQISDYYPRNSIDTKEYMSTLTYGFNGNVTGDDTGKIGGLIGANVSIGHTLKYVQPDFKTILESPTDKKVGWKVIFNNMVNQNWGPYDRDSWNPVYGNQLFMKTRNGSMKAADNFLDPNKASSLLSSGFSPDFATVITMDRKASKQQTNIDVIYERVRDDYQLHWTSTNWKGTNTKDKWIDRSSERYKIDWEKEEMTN

The target in a further assay is T2, HlgB.
T2 chain: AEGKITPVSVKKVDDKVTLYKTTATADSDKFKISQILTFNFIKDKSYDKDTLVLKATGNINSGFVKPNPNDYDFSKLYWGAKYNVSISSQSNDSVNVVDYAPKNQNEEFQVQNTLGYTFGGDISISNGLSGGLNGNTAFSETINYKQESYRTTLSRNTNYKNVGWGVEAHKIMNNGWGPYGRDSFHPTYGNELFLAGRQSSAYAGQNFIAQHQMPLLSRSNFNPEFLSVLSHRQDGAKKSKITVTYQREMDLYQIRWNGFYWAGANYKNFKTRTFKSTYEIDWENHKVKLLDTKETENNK
The assay can be described thus: MSD solution equilibrium; Fab.

In the next assay the target is T3, LukF.
T3 chain: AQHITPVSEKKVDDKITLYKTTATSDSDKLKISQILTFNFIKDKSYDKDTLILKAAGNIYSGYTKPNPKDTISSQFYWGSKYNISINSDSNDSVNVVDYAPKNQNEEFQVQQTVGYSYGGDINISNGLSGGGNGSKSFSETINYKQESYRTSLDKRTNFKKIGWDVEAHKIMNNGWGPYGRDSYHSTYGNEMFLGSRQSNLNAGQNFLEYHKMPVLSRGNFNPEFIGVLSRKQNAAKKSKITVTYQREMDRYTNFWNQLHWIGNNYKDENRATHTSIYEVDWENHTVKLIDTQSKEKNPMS
The assay can be described thus: MSD solution equilibrium; Fab.

In the next assay the target is T4, LukD.
T4 chain: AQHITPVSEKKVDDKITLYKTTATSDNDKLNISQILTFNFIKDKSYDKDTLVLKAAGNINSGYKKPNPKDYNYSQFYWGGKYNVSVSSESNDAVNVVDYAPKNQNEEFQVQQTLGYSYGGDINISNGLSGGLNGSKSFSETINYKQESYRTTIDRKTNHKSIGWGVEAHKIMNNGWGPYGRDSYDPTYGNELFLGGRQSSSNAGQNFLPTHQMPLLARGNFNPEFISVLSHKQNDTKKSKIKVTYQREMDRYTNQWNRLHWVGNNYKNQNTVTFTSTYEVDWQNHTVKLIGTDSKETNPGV
The assay can be described thus: MSD solution equilibrium; Fab.

By Kd is commonly meant the equilibrium constant for the complex coming apart. Lower therefore signals a tighter complex.

B1: AB-28-6 (antibody, V domains shown)
VH: QVQLQESGPGLVRPSETLSLTCAVSGYSISSGMGWGWIRQPPGKGLEWIGSIDQRGSTYYNPSLKSRVTISVDTSKNQFSLKLSSVTAADTAVYYCARDAGHAVDMDVWGKGTTVTVSS
VL: DIQMTQSPSSVSASVGDRVTITCRASQGISRWLAWYQQKPGKAPKLLIYAASSLQSGVPSRFSGSGSGTDFTLTISSLQPEDFATYYCQQGYVFPLTFGGGTKVEIK
Regarding B1, the Kd was under 0.002 nM with Hla, 0.0025 nM with HlgB, 0.016 nM with LukF and 0.4 nM with LukD.

B2: AB-28-4 (antibody, V domains shown)
VH: QVQLQESGPGLVKPSETLSLTCAVSGYPISSGMGWGWIRQPPGKGLEWIGRIDQRGSTYYNPSLKSRATISVDTSKNQFSLKLSSVTAADTAVYYCARDAGHGVDMDVWGKGTTVTVSS
VL: DIQMTQSPSSVSASVGDRVTITCRASQGISRWLAWYQQKPGKAPKLLIYAASSLQSGVPSRFSGSGSGTDFTLTISSLQPEDFATYYCQQGYVFPLTFGGGTKVEIK
B2: the values for the Kd with Hla, with HlgB and with LukD were 0.023 nM, 0.14 nM and 0.086 nM, respectively.

B3: AB-28-3 (antibody, V domains shown)
VH: QVQLQESGPGLVKPSETLSLTCAVSGYSISSGMGWGWIRQPPGKGLEWIGSVDQRGSTYYNPSLKSRVTISVDTSKNQFSLKLSSVTAADTAVYYCARDAGHGADMDVWGKGTTVTVSS
VL: DIQMTQSPSSVSASVGDRVTITCRASQGISRWLAWYQQKPGKAPKLLIYAASSLQSGVPSRFSGSGSGTDFTLTISSLQPEDFATYYCQQGYVFPLTFGGGTKVEIK
For B3, the Kd with Hla was 0.037 nM; in the assay with HlgB it was 0.018 nM; with LukF it was under 0.003 nM; with LukD it was 1.7 nM.

B4: AB-28 (antibody, V domains shown)
VH: QVQLQESGPGLVKPSETLSLTCAVSGYSISSGMGWGWIRQPPGKGLEWIGSIDQRGSTYYNPSLKSRVTISVDTSKNQFSLKLSSVTAADTAVYYCARDAGHGVDMDVWGKGTTVTVSS
VL: DIQMTQSPSSVSASVGDRVTITCRASQGISRWLAWYQQKPGKAPKLLIYAASSLQSGVPSRFSGSGSGTDFTLTISSLQPEDFATYYCQQGYVFPLTFGGGTKVEIK
Consider B4, for which the Kd is under 0.002 nM with Hla, 0.005 nM with HlgB, 0.13 nM with LukF and 2.2 nM in the assay with LukD.

B5: AB-28-9 (antibody, V domains shown)
VH: EVQLQESGPGLVRPSETLSLTCAVSGYSISSGMGWGWIRQPPGKGLEWIGSIDQRGSTYYNPSLKSRVTISVDTSKNQFSLKLSSVTAADTAVYYCARDAGHAVDMDVWGKGTTVTVSS
VL: DIQMTQSPSSVSASVGDRVTITCRASQGISRWLAWYQQKPGKAPKLLIYAASSLQSGVPSRFSGSGSGTDFTLTISSLQPEDFATYYCQQGYVFPLTFGGGTKVEIK
In the case of B5, the Kd in the assay with Hla was under 0.002 nM; with HlgB it was 0.005 nM; in the assay with LukF it was 0.13 nM; with LukD, 2.2 nM.

B6: AB-28-13 (antibody, V domains shown)
VH: QVQLQESGPGLVKPSETLSLTCAVSGYSISSGMGWDWIRQPPGKGLEWIGSIDQRGSTYYNPSLEGRATISVDTSKNQFSLKLSSVTAADTAVYYCARDAGHGVDMDVWGKGTTVTVSS
VL: DIQMTQSPSSVSASVGDRVTITCRASQGISRWLAWYQQKPGKAPKLLIYAASSLQSGVPSRFSGSGSGTDFTLTISSLQPEDFATYYCQQGYVFPLTFGGGTKVEIK
Consider B6, for which the Kd is under 0.002 nM in the assay with Hla, 0.003 nM in the assay with HlgB, 0.089 nM in the assay with LukF and 0.79 nM with LukD.

B7: AB-28-5 (antibody, V domains shown)
VH: QVQLQESGPGLVKPSETLSLTCAVSGYSISSGMGWGWIRQPPGKGLEWIGRVDQRGSTYYNPSLKSRVTISVDTSKNQFSLKLSSVTAADTAVYYCARDAGHGVDMDVWGKGTTVTVSS
VL: DIQMTQSPSSVSASVGDRVTITCRASQGISRWLAWYQQKPGKAPKLLIYAASSLQSGVPSRFSGSGSGTDFTLTISSLQPEDFATYYCQQGYVFPLTFGGGTKVEIK
With B7, the Kd with Hla is 0.03 nM; in the assay with HlgB, 0.16 nM; in the assay with LukD it was 0.16 nM.

(Values after US20180179267A1 (published 2018).)
